Reference: patent publication US20240033291A1 (CELLENGENE, published 2024)

Biological target: human mesothelin protein (MSLN antigen, Acro Biosystems) (human, UniProt Q13421 37-622)
Test: ELISA, coated human mesothelin 1 ug/mL, purified scFv serially diluted, anti-StrepMAB HRP

Chain of human mesothelin protein (MSLN antigen, Acro Biosystems) (Q13421 37-630): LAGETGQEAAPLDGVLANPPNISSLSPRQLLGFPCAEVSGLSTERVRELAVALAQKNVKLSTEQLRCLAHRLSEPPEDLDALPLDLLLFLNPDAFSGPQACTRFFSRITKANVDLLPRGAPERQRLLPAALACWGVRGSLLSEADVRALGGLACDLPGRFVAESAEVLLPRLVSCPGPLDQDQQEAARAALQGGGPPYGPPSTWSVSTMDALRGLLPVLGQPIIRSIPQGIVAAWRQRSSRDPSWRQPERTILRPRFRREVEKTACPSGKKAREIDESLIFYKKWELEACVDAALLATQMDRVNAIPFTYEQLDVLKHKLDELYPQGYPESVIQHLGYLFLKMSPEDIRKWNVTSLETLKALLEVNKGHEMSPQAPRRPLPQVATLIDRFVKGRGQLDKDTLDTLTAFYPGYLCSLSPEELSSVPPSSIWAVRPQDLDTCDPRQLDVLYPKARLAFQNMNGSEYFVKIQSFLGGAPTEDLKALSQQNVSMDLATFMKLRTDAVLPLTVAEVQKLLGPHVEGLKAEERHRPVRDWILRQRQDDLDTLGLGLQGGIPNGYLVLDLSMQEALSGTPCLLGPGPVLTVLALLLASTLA

EC50: 145 nM
B1: anti-MSLN-scFv antibody MSLN3 (purified scFv) (scFv)
chain: EVQLVESGGGLVQPGGSLRLSCAASGFTFSDYAMSWVRQAPGKGLEWVSAISSSGGTTYYADSVKGRFTISRDNSKNTLYLQMNSLRAEDTAVYYCAKEEEGEWREYFDVWGQGTLVTVSSGGGGSGGGGSGGGGSDIQMTQSPSSLSASVGDRVTITCRASQSISSYLNWYQQKPGKAPKLLIYATSTLQSGVPSRFSGSGSGTDFTLTISSLQPEDFATYYCQQSYTFPYTFGQGTKVEIKAST
